Results reported in article PMC12440816, “Cell cycle regulation has shaped replication origins in budding yeast” (Nature Structural & Molecular Biology, 2025).

What was measured:
Mcm4 = target: T1, Mcm4 (Saccharomyces cerevisiae, UniProt P30665 1-933); assay: cryo-EM structure; SH and DH on nucleosome-flanked ARS1 (15 nM) loaded by Orc6-4A ORC (40 nM) pre-phosphorylated by CDK, Cdc6 (40 nM), MCM–Cdt1 (80 nM), 2.2 mM ATP, 30 °C, 30 min; conditions: both partners purified
T1 construct: Mcm4 of S. cerevisiae; Subunit of m5, for the subunit pairs of the SH structure; source: subunit of purified MCM–Cdt1 (previously described methods)
T1 sequence: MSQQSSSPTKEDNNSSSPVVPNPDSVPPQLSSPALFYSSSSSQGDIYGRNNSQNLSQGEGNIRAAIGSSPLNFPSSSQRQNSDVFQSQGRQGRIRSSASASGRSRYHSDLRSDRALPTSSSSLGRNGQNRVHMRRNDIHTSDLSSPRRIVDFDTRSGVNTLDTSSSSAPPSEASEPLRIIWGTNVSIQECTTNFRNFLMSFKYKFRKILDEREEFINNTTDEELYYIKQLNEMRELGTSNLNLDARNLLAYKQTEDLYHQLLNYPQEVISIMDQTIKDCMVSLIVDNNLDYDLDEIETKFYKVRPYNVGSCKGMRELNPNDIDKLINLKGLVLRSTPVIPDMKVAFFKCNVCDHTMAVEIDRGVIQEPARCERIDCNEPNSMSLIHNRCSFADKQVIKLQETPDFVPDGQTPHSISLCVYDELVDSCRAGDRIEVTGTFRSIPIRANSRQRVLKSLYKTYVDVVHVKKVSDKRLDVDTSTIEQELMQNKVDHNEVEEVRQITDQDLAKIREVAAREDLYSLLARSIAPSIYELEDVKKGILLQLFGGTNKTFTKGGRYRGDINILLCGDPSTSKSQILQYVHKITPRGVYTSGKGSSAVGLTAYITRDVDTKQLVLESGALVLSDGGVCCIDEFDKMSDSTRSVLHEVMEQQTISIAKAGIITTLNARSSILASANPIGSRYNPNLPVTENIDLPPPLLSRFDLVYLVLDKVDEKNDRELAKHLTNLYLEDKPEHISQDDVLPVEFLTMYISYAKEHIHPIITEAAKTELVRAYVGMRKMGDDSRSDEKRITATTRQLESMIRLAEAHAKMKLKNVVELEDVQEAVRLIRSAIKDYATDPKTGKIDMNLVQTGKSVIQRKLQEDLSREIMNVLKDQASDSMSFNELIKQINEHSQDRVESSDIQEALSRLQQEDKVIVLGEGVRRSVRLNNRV

Mcm3 = target: T2, Mcm3 (Saccharomyces cerevisiae, UniProt P24279 1-971); assay: as above; conditions: both partners purified
T2 construct: Mcm3 of S. cerevisiae; Subunit of m5, for the subunit pairs of the SH structure; source: subunit of purified MCM–Cdt1 (previously described methods)
T2 sequence (P24279 whole entry): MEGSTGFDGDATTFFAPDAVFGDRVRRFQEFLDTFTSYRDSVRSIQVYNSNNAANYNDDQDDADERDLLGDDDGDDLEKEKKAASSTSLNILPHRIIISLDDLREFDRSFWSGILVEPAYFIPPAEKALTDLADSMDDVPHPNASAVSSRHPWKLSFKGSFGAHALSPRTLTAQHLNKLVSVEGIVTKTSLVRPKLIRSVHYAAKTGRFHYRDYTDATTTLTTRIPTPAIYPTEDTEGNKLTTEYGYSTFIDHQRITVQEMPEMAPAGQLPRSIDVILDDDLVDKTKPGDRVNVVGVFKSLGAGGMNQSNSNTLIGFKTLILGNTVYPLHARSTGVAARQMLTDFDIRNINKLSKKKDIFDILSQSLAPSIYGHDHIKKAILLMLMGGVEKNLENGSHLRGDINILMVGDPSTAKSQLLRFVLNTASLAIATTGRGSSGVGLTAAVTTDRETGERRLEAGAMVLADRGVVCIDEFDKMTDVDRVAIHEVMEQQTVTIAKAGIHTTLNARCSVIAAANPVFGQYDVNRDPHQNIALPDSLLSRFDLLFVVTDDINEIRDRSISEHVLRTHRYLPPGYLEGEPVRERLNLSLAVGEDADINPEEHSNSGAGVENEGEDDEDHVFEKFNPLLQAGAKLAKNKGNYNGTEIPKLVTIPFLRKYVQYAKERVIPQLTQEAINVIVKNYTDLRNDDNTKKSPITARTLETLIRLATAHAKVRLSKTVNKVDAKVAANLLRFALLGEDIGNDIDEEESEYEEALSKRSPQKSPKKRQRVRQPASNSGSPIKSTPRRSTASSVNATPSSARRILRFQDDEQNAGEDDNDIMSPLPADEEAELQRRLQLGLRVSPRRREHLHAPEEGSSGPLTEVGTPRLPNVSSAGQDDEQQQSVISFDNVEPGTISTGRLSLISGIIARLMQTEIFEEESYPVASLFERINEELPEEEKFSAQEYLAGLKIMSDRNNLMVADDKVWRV

binding result (Mcm4): binds
binding result (Mcm3): binds
B1: Mcm7 (natural protein, Saccharomyces cerevisiae)
chain: MSAALPSIQLPVDYNNLFNEITDFLVTFKQDTLSSDATRNENEDENLDAENIEQHLLEKGPKYMAMLQKVANRELNSVIIDLDDILQYQNEKFLQGTQADDLVSAIQQNANHFTELFCRAIDNNMPLPTKEIDYKDDVLDVILNQRRLRNERMLSDRTNEIRSENLMDTTMDPPSSMNDALREVVEDETELFPPNLTRRYFLYFKPLSQNCARRYRKKAISSKPLSVRQIKGDFLGQLITVRGIITRVSDVKPAVEVIAYTCDQCGYEVFQEVNSRTFTPLSECTSEECSQNQTKGQLFMSTRASKFSAFQECKIQELSQQVPVGHIPRSLNIHVNGTLVRSLSPGDIVDVTGIFLPAPYTGFKALKAGLLTETYLEAQFVRQHKKKFASFSLTSDVEERVMELITSGDVYNRLAKSIAPEIYGNLDVKKALLLLLVGGVDKRVGDGMKIRGDINVCLMGDPGVAKSQLLKAICKISPRGVYTTGKGSSGVGLTAAVMKDPVTDEMILEGGALVLADNGICCIDEFDKMDESDRTAIHEVMEQQTISISKAGINTTLNARTSILAAANPLYGRYNPRLSPLDNINLPAALLSRFDILFLMLDIPSRDDDEKLAEHVTYVHMHNKQPDLDFTPVEPSKMREYIAYAKTKRPVMSEAVNDYVVQAYIRLRQDSKREMDSKFSFGQATPRTLLGIIRLSQALAKLRLADMVDIDDVEEALRLVRVSKESLYQETNKSKEDESPTTKIFTIIKKMLQETGKNTLSYENIVKTVRLRGFTMLQLSNCIQEYSYLNVWHLINEGNTLKFVDDGTMDTDQEDSLVSTPKLAPQTTASANVSAQDSDIDLQDA
notes: Mcm7 of S. cerevisiae; Subunit of m5, for the subunit pairs of the SH structure; source: subunit of purified MCM–Cdt1 (previously described methods)
